Target: T1, Sfpq wild-type (human, UniProt P23246 1-707)
T1 sequence: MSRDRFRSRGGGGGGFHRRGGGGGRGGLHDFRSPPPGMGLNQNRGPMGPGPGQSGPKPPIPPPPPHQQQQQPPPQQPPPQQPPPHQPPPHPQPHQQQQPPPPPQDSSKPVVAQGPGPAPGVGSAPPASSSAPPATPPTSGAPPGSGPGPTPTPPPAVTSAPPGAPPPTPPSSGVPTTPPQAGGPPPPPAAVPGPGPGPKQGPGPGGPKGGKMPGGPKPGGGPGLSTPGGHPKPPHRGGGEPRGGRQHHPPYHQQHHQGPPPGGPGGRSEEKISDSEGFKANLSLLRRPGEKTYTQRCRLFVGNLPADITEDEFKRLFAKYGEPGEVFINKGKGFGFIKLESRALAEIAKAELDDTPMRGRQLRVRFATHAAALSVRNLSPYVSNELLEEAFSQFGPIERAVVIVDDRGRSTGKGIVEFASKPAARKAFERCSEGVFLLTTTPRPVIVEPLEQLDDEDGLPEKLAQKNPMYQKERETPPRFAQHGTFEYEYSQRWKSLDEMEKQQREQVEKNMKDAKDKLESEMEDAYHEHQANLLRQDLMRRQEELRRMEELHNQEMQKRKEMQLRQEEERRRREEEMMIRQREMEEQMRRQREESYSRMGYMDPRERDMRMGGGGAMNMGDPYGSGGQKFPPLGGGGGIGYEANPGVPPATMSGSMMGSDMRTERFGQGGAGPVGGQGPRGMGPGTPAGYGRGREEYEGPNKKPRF
Assay: UV crosslinking; 100 nM Sfpq; EMSA: 75 mM Hepes pH 7.9, 150 mM NaCl, 75 mM KCl, 0.1 mM EDTA, 5 mM DTT, 5 mM PMSF, 15% glycerol, 15 min, room temperature; AFM: 120 mM NaCl, 24 mM Tris-HCl pH
Conditions: protein: recombinant, tags: 6xHis (pET15b), chain copies: 2, label: 32P

Row | Binder | binding result | binding result (two copies of CUGUA (contains CUGU))
1 | CCCCGCCCCG (ssRNA) [Sfpq negative RNA oligo (CCCCG x2)] | no binding | –
2 | CUGUACUGUA (ssRNA) [CUGU/CUGUA x2 oligo] | – | binds
